For data set [1], the system named is T1, Peptide P2 (corneodesmosin fragment with F at position 40 of L20815).
T1 sequence: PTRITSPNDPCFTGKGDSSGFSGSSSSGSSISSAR

Data set [2] concerns T2, Peptide P1 (corneodesmosin fragment with L at position 40 of L20815).
T2 sequence: T1 sequence with F12L

Residue numbers refer to the chain shown, from its start.

The results in this text go back to patent publication US20080292615.

As to chymotrypsin, the “products of proteolysis after exposure of the peptide to chymotrypsin” value in data set [1] is “peptide P2 with F at position 40 of L20815 gives three small peptides PTRITSPNDPCF (SEQ ID NO 25), TGKGDSSGF (SEQ ID NO 26) and SGSSSSGSSISSAR (SEQ ID NO 24)”; in data set [2] it was “peptide P1 with L at position 40 of L20815 gives two products of proteolysis: PTRITSPNDPCL40TGKGDSSGF (SEQ ID NO 23) and SGSSSSGSSISSAR (SEQ ID NO 24)”.
